Results reported in the supplement of paper PMC10065799, “High-throughput profiling of sequence recognition by tyrosine kinases and SH2 domains using bacterial peptide display” (eLife, 2023).

How the values were obtained:
[1] = biological target: Grb2 SH2 (UniProt P62993); test: SH2 binding enrichment of the phosphorylated peptide, bacterial display (enrichment ratio); higher = better substrate or ligand; peptides without Tyr show the background
[2] = biological target: SHP2-C SH2; test: as above
[3] = biological target: c-Src SH2; test: as above
[4] = tested on: c-Src; test: phosphorylation enrichment, bacterial display (enrichment ratio); higher = better substrate or ligand; peptides without Tyr show the background
[5] = biological target: Fyn (UniProt P06241); test: as above
[6] = biological target: Fes (UniProt P07332); test: as above
Chain of Fes (P07332 whole entry, looked up): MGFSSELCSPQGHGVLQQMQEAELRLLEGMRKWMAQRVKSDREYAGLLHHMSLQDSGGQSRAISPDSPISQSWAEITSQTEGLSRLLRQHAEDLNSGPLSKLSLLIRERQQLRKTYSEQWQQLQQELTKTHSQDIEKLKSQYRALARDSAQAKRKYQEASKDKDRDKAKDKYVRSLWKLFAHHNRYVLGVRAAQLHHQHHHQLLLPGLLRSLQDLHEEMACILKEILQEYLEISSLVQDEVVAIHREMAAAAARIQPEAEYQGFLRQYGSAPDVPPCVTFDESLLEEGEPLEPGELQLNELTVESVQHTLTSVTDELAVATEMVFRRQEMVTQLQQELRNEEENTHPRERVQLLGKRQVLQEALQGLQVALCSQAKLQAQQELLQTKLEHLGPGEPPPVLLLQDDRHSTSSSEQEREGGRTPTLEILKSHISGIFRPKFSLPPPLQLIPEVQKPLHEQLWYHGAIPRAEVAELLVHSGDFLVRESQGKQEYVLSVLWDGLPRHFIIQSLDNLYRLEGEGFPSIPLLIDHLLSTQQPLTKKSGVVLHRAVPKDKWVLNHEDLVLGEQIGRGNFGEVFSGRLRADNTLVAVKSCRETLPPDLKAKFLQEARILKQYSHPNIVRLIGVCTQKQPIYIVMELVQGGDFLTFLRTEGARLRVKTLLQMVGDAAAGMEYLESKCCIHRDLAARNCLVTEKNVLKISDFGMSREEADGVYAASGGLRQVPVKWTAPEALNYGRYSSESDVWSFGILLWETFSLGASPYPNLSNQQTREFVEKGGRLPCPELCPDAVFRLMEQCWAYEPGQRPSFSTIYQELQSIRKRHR

[7] = biological target: EPHB1 (UniProt P54762); test: as above
Chain of EPHB1 (P54762 whole entry, looked up): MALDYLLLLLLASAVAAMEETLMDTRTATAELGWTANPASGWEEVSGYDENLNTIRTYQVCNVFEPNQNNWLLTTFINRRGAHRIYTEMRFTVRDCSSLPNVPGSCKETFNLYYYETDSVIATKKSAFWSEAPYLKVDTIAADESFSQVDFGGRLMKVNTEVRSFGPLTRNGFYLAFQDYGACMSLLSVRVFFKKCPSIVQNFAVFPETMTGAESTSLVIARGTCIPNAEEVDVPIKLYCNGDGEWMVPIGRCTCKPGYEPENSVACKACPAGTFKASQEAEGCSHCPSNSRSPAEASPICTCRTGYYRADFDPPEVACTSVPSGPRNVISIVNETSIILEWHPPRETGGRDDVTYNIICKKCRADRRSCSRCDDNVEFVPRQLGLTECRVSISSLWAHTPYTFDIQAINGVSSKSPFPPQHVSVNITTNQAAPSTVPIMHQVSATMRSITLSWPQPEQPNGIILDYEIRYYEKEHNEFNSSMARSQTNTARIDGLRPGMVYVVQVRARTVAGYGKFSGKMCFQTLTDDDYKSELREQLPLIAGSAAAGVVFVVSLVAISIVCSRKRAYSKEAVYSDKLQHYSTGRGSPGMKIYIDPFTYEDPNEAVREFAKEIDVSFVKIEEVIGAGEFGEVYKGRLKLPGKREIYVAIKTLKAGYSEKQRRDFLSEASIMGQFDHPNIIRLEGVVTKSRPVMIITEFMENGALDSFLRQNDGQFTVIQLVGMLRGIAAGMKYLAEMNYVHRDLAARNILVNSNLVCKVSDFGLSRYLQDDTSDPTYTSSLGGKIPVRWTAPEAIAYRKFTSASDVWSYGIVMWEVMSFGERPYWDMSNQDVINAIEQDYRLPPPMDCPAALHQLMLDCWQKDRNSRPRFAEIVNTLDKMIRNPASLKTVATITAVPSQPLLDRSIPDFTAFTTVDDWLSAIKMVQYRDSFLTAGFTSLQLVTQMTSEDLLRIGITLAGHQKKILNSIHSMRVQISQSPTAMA

[8] = tested on: Fer (mouse); test: as above
[9] = biological target: EPHB2 (UniProt P29323); test: as above
Chain of EPHB2 (P29323 whole entry, looked up): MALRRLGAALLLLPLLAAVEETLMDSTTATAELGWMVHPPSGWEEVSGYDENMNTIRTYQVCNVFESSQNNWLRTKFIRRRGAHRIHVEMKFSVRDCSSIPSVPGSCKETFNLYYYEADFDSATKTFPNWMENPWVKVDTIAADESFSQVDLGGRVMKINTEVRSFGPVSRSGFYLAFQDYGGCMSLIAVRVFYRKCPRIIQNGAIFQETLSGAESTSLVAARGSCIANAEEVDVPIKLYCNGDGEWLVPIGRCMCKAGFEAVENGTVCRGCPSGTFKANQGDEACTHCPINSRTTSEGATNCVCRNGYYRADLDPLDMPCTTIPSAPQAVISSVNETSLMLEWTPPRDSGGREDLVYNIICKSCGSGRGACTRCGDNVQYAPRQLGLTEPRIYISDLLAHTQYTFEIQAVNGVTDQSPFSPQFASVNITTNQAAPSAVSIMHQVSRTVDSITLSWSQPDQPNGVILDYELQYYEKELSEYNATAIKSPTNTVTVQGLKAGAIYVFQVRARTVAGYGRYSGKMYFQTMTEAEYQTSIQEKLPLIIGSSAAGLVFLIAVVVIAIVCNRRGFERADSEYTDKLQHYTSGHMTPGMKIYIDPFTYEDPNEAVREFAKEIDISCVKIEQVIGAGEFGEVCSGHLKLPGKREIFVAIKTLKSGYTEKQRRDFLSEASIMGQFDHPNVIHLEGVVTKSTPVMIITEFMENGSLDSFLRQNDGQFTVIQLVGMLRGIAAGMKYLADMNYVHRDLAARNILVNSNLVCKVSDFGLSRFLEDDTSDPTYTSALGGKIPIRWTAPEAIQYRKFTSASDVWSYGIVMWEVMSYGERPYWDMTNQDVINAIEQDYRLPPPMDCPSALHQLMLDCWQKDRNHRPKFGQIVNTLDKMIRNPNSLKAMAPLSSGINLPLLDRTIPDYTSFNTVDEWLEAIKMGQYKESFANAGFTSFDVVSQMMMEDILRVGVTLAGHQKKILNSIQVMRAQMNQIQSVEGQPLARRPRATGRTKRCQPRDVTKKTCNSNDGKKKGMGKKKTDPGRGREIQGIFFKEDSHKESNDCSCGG

[10] = biological target: Hck (UniProt P08631); test: as above
[11] = biological target: FGFR3 (UniProt P22607); test: as above
[12] = biological target: FGFR1 (UniProt P11362); test: as above
Chain of FGFR1 (P11362 whole entry, looked up): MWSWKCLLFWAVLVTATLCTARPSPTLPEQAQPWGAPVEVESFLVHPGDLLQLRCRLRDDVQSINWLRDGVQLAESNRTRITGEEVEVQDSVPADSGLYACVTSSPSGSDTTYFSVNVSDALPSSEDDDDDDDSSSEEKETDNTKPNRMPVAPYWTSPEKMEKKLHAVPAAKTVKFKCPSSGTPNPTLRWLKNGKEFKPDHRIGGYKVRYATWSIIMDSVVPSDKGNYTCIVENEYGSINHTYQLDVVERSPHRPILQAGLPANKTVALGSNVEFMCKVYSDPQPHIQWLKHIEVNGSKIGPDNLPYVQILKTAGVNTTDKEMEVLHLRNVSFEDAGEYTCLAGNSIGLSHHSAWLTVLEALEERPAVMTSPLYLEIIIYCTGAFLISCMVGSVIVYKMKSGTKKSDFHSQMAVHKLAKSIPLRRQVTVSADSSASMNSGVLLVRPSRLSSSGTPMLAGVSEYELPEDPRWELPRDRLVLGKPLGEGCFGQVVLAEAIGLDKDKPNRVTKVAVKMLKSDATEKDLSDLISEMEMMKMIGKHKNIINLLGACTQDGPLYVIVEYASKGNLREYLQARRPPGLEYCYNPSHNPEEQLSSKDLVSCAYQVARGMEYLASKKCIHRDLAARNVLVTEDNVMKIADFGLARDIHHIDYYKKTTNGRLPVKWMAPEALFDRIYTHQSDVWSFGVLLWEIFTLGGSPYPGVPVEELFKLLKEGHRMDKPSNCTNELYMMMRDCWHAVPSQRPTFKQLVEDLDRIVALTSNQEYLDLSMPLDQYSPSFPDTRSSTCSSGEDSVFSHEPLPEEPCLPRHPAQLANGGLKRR

[13] = biological target: MERTK (UniProt Q12866); test: as above
[14] = biological target: Jak2 (UniProt O60674); test: as above
Chain of Jak2 (O60674 whole entry, looked up): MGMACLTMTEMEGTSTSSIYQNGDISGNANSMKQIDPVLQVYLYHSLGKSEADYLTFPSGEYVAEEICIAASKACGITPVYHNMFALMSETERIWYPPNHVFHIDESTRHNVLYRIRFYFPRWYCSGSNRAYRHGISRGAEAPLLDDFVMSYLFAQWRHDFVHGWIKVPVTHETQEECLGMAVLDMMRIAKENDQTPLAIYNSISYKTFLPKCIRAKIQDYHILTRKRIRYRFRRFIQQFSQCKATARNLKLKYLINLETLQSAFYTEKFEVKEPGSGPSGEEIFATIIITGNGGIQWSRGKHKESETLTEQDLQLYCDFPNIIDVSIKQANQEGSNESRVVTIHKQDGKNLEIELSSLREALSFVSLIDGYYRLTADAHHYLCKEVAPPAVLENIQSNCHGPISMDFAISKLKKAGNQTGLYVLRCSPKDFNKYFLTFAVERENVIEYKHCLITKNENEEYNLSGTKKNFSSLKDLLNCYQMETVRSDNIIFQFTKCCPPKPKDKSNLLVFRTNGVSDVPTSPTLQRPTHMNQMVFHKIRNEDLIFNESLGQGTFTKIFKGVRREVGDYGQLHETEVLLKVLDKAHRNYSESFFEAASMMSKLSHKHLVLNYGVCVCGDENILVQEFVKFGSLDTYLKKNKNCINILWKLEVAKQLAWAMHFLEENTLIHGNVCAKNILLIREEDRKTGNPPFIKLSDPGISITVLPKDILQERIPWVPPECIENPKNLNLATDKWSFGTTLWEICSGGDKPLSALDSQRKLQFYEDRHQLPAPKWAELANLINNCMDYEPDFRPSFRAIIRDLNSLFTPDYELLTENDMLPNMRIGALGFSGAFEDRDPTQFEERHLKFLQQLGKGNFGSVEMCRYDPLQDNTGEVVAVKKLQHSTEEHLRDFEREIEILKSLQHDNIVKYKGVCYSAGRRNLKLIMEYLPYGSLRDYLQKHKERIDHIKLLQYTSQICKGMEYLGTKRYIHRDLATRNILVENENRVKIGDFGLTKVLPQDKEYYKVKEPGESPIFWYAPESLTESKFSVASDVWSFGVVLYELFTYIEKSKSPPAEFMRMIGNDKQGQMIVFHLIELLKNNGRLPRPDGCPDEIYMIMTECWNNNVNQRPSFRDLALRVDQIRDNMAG

[15] = tested on: c-Abl (mouse); test: as above
[16] = tested on: AncSZ; test: as above
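For SH2 binding enrichment of the phosphorylated peptide, bacterial display in this document: peptide library displayed on the E. coli surface as eCPX fusions, selected cells deep-sequenced, score is each peptide's frequency after selection divided by its frequency in the input.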
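For phosphorylation enrichment, bacterial display in this document: 11-residue human phosphosite peptides and single-mutation variants displayed on the E. coli surface, counted by deep sequencing, each peptide's frequency after selection divided by its frequency in the unselected input library; frequency after pTyr selection over input frequency; kinase dosed for 20-30% of maximal phosphorylation in three min.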

SH2 binding enrichment [1]	SH2 binding enrichment [2]	SH2 binding enrichment [3]	Sequence	phosphorylation enrichment [4]	phosphorylation enrichment [5]	phosphorylation enrichment [6]	phosphorylation enrichment [7]	phosphorylation enrichment [8]	phosphorylation enrichment [9]	phosphorylation enrichment [10]	phosphorylation enrichment [11]	phosphorylation enrichment [12]	phosphorylation enrichment [13]	phosphorylation enrichment [14]	phosphorylation enrichment [15]	phosphorylation enrichment [16]
0.731	0.773	0.347	KDKLPYLFDDP [GPX2_Y125_P126L_YF]	0.557	0.479	0.969	0.632	0.423	0.515	0.468	0.544	0.472	0.426	1.01	0.557	1.23
0.852	0.813	0.459	ICTVDYLLRLQ [RYR1_Y3921]	0.444	0.539	1.41	0.659	0.736	0.618	0.542	0.733	0.529	0.428	1.12	0.966	1.21
0.761	0.462	0.436	NKEAICSGYIR [SMCHD1_Y283_Y283C]	0.399	0.369	0.903	0.52	0.446	0.547	0.424	0.71	0.509	0.42	0.875	1.3	0.794
0.949	0.676	0.525	KVQVSYKGDTK [HSPA1A_Y107_E110D]	0.473	0.372	0.598	0.299	0.328	0.36	0.392	0.378	0.425	0.414	0.5	0.615	0.491
0.988	1.03	0.602	NPQKSYFICLF [WAS_Y83_R86C_YF]	0.504	0.39	1.27	0.525	0.496	0.523	0.448	0.757	0.632	0.43	1.13	1	1.1
0.881	1	0.533	FAKTQYPDIYA [CRX_Y63_V66I]	0.572	0.519	0.693	0.355	0.359	0.427	0.709	0.668	0.449	0.396	0.563	0.526	0.518
1.03	0.418	0.937	QMQAAYQKVVA [HBD_Y131]	0.293	0.47	0.578	0.373	0.519	0.441	0.47	0.72	0.419	0.412	0.497	0.422	0.504
0.75	0.672	0.384	SNYRAYATEPQ [TNNI3_Y29_H34Q]	0.44	0.419	0.72	0.461	0.444	0.467	0.497	0.475	0.389	0.428	0.597	0.464	0.699
0.941	0.817	0.55	KHCEDYVFSFN [DSC1_Y846_C848F_YF]	1.75	0.472	1.21	0.776	0.562	0.739	0.499	1.84	1.82	0.471	1.04	0.791	1.75
0.573	0.519	0.327	ADARMYGVLLW [PLP1_Y207_P211L]	4.01	3.59	1.39	0.559	0.616	0.662	2.42	0.751	0.591	0.544	1.03	0.741	1.12
0.934	0.697	0.651	KVMANYMFKAG [MAML2_Y513_YF]	0.414	0.344	0.675	0.448	0.394	0.744	0.342	0.418	0.412	0.432	0.519	0.556	0.638
0.825	0.571	0.393	CSPLLYRVIMS [OR8D4_Y132]	0.449	0.527	1.25	0.691	0.577	0.695	0.6	0.75	0.611	0.507	0.992	0.851	1.22
1.38	0.874	1.2	LAGRFYALRSM [CKB_Y174_K177R_YF]	0.571	0.737	1.92	0.583	0.843	0.944	0.821	1.84	0.598	0.509	0.59	0.642	1.29
0.848	0.585	0.493	QLRPGYIPIPV [BAG3_Y93]	0.734	0.736	0.915	0.774	0.645	0.592	0.639	1.09	0.735	0.772	1.08	0.796	0.953
0.78	0.766	0.438	NELTYYCCKKD [CD59_Y87]	3.91	2.92	1.3	0.923	3.67	1.17	3.04	3.92	7.15	4.45	2.83	1.48	1.9
1.08	0.426	0.377	EGDGVYTLNNK [HP_Y125_E130K]	4.5	7.02	0.857	0.601	0.455	0.378	3.23	0.586	0.48	0.354	0.749	0.62	0.86
0.758	1.1	4.1	RPSELYYSKIG [SMG1_Y2253]	5.63	1.69	1.23	1.79	1.59	0.88	11.3	1.84	3.1	20.1	1.06	1.01	1.08

SH2 binding enrichment [1]	SH2 binding enrichment [2]	SH2 binding enrichment [3]	Sequence	phosphorylation enrichment [4]	phosphorylation enrichment [5]	phosphorylation enrichment [6]	phosphorylation enrichment [7]	phosphorylation enrichment [8]	phosphorylation enrichment [9]	phosphorylation enrichment [10]	phosphorylation enrichment [11]	phosphorylation enrichment [12]	phosphorylation enrichment [13]	phosphorylation enrichment [14]	phosphorylation enrichment [15]	phosphorylation enrichment [16]
0.706	0.607	0.418	PVGVLYKVKVF [PTS_Y128_YF]	0.388	0.716	1.61	1.14	0.659	0.906	0.619	1.4	0.842	0.381	1.21	0.882	1.45
0.803	0.503	4.85	AAVPAYDKIRV [STXBP2_Y401]	0.452	0.344	0.714	0.372	2.02	0.355	1.36	0.541	0.321	0.48	0.874	0.569	0.64
1.08	0.642	1.8	LERYIYNREEY [HLA-DPB1_Y59_F64Y]	3.15	1.77	1.25	0.568	0.519	0.982	1.72	0.903	0.726	0.719	0.998	0.752	1.08
1.11	0.937	0.622	HKLSFCEFDFE [BTK_Y40_Y40C_YF]	1.03	0.764	3.4	0.934	0.965	0.787	0.83	1.34	0.844	0.776	2.48	1.78	3.33
0.946	0.747	0.637	DEEEEYEFMNR [ERBB3_Y1197_D1194E_YF]	0.527	0.512	1.07	0.62	0.485	0.76	0.522	0.779	0.572	0.462	0.903	1.1	1.16
0.923	0.568	0.484	RRIHSNRGHLW [VHL_Y112_Y112N]	0.625	0.574	0.732	0.496	0.485	0.48	0.709	0.408	0.357	0.677	0.653	0.825	0.702
1.03	1	1.11	LLREWYVQDPF [SIX3_Y225_L226V_YF]	0.466	0.438	0.977	0.673	0.576	0.621	0.522	0.998	0.766	0.443	0.892	0.528	0.961
1.04	1.11	0.581	FTRNYYVWAVL [CYBA_Y88_R90W]	0.506	0.858	1.7	3.79	1.42	1.55	0.75	5.58	6.92	3.54	1.84	12	1.6
0.781	0.662	0.557	DGMADYSDPSF [CDC5L_Y459_YF]	0.501	0.488	1.2	1.72	0.592	3.21	0.63	1	0.911	0.5	1.12	1.04	1.92
1.27	0.66	0.609	RQEEEYKRFSE [SFSWAP_Y133_L136F]	0.554	0.602	1.95	0.779	0.663	0.88	0.648	0.918	0.712	0.682	1.11	0.831	1.41
1.15	1.25	1.04	VIKDKYPKARF [APTX_Y209_YF]	0.408	0.294	0.672	0.339	0.288	0.297	0.332	0.504	0.425	0.374	0.772	0.646	0.455
1	0.747	0.599	FISVGYVDDTQ [HLA-B_Y51]	0.405	0.47	1.05	0.507	0.471	0.593	0.444	0.743	0.556	0.432	0.801	0.752	0.808
10.3	0.88	4.76	VNYGAYINDFK [GLB1_Y488]	0.761	0.912	0.86	0.709	0.402	1.22	0.454	0.593	0.469	0.373	0.665	0.515	0.773
0.821	0.517	0.423	PEADKYRLPFA [FGG_Y300_T303P_YF]	0.614	0.614	0.717	0.61	0.512	0.645	0.648	0.657	0.544	0.442	0.731	0.634	0.988
0.645	0.851	0.495	GPIIRYDLGGA [CYP11B1_Y81_F79I]	0.405	0.412	0.723	0.585	0.396	0.366	0.384	0.498	0.617	0.477	0.626	0.518	0.648
0.874	0.739	0.561	SELVCYDARVH [MET_Y971_R970C]	0.482	0.603	1.14	0.592	0.49	0.673	0.816	0.679	0.547	0.496	0.867	0.721	1.07
